Source: PMC6304933

Biological target: Thermosynechococcus elongatus BP-1 Fed2 (Thermosynechococcus elongatus BP-1)
Assay: SDS/PAGE

- stoichiometry N: 2
Substance: Thermosynechococcus elongatus BP-1 Fed2 (natural protein)
